This test deals with M. tuberculosis PpiB overexpressed in M. smegmatis (Ms_PpiB Tet+) (Mycobacterium tuberculosis) (UniProt P9WHW1). The test can be described thus: cell-based or functional assay.
Chain of UniProt P9WHW1 (P9WHW1 whole entry): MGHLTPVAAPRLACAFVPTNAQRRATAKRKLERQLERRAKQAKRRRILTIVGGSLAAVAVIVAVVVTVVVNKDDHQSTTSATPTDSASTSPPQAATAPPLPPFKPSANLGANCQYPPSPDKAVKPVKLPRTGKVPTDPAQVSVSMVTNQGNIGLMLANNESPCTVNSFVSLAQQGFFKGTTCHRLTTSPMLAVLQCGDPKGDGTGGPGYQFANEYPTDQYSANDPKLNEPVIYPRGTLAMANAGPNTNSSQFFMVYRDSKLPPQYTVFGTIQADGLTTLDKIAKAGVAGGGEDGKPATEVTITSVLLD

cyclosporine A (peptide): the biofilm formation (crystal violet assay, absorbance at 550 nm) is above 100 µg/mL.

Source of the values: patent US20200188477A1, “A MEDICAMENT FOR THE TREATMENT OF DISEASES BY BIOFILM FORMING MICROORGANISMS” (priority 2017, published 2020).
